These results are taken from paper PMC9225675 (mAbs, 2022).

In the assay the target is T1, LukF component of Panton-Valentine Leukocidin (LukF-PV) (Staphylococcus aureus, strain ).
T1 chain: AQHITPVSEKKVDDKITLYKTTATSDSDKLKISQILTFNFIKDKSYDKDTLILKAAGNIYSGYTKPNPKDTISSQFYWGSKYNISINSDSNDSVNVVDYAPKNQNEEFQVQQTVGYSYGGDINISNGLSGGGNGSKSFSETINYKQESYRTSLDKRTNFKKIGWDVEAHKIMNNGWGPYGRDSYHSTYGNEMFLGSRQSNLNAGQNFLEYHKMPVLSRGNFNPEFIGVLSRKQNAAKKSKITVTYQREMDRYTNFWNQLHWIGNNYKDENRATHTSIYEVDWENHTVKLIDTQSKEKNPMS
The experiment in a line: BLI.

B1: H5 mAb (broadly neutralizing antibody) (antibody, V domains shown)
VH: EVQLQESGPGLVRPSETLSLTCAVSGYSISSGMGWGWIRQPPGKGLEWIGSIDQRGSTYYNPSLKSRVTISVDTSKNQFSLKLSSVTAADTAVYYCARDAGHAVDMDVWGKGTTVTVSS
VL: DIQMTQSPSSVSASVGDRVTITCRASQGISRWLAWYQQKPGKAPKLLIYAASSLQSGVPSRFSGSGSGTDFTLTISSLQPEDFATYYCQQGYVFPLTFGGGTKVEIK
Consider B1, for which the Kd is 0.4 nM.
